To fix the notation:
B1: Nb34 (VHH)
VHH: DVQLVESGGGLVQAGGSLRLSCAASGFTFSNYVMYWGRQAPGKGREWVSGIDSDGSDTAYASSVKGRFTISRDNAKNTLYLQMNNLKPEDTALYYCVKSKDPYGSPWTRSEFDDYWGQGTQVTVSS
notes: Cloned in pET-21b(+)
B2: Nb21 (VHH)
VHH: QVQLVESGGGLVQAGGSLRLSCAVSGLGAHRVGWFRRAPGKEREFVAAIGANGGNTNYLDSVKGRFTISRDNAKNTIYLQMNSLKPQDTAVYYCAARDIETAEYTYWGQGTQVTVSS
notes: Cloned in pET-21b(+); also called class I Nb; source: E. coli BL21 (DE3), purified (cobalt resin, Superdex 75)
B3: Nb17 (VHH)
VHH: HVQLVESGGGLVQAGGSLRLSCAASGSIFSSNAMSWYRQAPGKQRELVASITSGGNADYADSVKGRFTISRDKNTVYPEMSSLKPADTAVYYCHAVGQEASAYAPRAYWGQGTQVTVSS
notes: Cloned in pET-21b(+); also called class III Nb; source: E. coli BL21 (DE3), purified (cobalt resin, Superdex 75)
B4: Nb95 (VHH)
VHH: QVQLVESGGGLVQAGGSLRLSCAASGRTFSSYSMGWFRQAQGKEREFVATINGNGRDTYYTNSVKGRFTISRDDATNTVYLQMNSLKPEDTAIYYCAADKDVYYGYTSFPNEYEYWGQGTQVTVSS
notes: Cloned in pET-21b(+)

In the assay the target is receptor binding domain (RBD) of SARS-CoV-2 spike (SARS-CoV-2 Wuhan-Hu-1, UniProt P0DTC2). Description: ELISA. Conditions: both partners purified.
Consider B1, for which the binding result is reported as “binds”.

With B2, the binding result is given as “binds”. The same measure for B3: “binds”; for B4: “binds”.

The record behind these values is PMC8333356 (Nature Communications, 2021).
